These results are taken from patent US20100260668A1 (published 2010).

A word on the Kd: it is the free concentration of one partner at which half of the binding sites on the other are occupied at equilibrium, for simple one-to-one binding. As a reminder, the koff is the rate constant with which the complex falls apart. Usually kon stands for the rate constant with which the complex forms.

The target of test [1] is T1, Placental GF (UniProt P49763-2 21-149, limits assumed).
T1 construct: Bought reagent; also called PlGF; PLGF
T1 sequence (looked up): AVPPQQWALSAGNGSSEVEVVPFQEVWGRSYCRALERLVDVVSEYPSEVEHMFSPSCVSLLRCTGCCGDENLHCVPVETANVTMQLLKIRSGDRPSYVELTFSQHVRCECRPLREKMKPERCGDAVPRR
The test is described as follows: Biacore SPR.
Experimental: (§1) The BIACORE assay (Biacore, Inc, Piscataway, N.J.) determines the affinity of antibodies or DVD-Ig with kinetic measurements of on-rate and off-rate constants. Binding of antibodies or DVD-Ig to a target antigen (for example, a purified recombinant target antigen) is determined by surface plasmon resonance-based measurements with a Biacore® 1000 or 3000 instrument (Biacore® AB, Uppsala, Sweden) using running HBS-EP (10 mM HEPES [pH 7.4], 150 mM NaCl, 3 mM EDTA, and 0.005% surfactant P20) at 25° C. […] For example, approximately 5000 RU of goat anti-mouse IgG, (Fcγ), fragment specific polyclonal antibody (Pierce Biotechnology Inc, Rockford, Ill.) diluted in 10 mM sodium acetate (pH 4.5) is directly immobilized across a CM5 research grade biosensor chip using a standard amine coupling kit according to manufacturer's instructions and procedures at 25 μg/ml. Unreacted moieties on the biosensor surface are blocked with ethanolamine. Modified carboxymethyl dextran surface in flowcell 2 and 4 is used as a reaction surface. Unmodified carboxymethyl dextran without goat anti-mouse IgG in flow cell 1 and 3 is used as the reference surface. For kinetic analysis, rate equations derived from the 1:1 Langmuir binding model are fitted simultaneously to association and dissociation phases of all eight injections (using global fit analysis) with the use of Biaevaluation 4.0.1 software. Purified antibodies or DVD-Ig are diluted in HEPES-buffered saline for capture across goat anti-mouse IgG specific reaction surfaces. Antibodies or DVD-Ig to be captured as a ligand (25 μg/ml) are injected over reaction matrices at a flow rate of 5 μl/min. The association and dissociation rate constants, kₒₙ (M⁻¹s⁻¹) and koff (s⁻¹) are determined under a continuous flow rate of 25 μl/min. Rate constants are derived by making kinetic binding measurements at different antigen concentrations ranging from 10-200 nM. The equilibrium dissociation constant (M) of the reaction between antibodies or DVD-Igs and the target antigen is then calculated from the kinetic rate constants by the following formula: KD=koff/kₒₙ. Binding is recorded as a function of time and kinetic rate constants are calculated.

Test [2] deals with T2, DLL ECD His tag (UniProt Q9NR61 27-529, limits assumed).
T2 construct: extracellular domain; Bought reagent; also called DLL4; DLL-4; not shown: His tag
The test is described as follows: Biacore SPR.

The target of test [3] is T3, HGF (UniProt P14210 32-728).
T3 construct: Bought reagent
T3 sequence (P14210 32-728 limits assumed): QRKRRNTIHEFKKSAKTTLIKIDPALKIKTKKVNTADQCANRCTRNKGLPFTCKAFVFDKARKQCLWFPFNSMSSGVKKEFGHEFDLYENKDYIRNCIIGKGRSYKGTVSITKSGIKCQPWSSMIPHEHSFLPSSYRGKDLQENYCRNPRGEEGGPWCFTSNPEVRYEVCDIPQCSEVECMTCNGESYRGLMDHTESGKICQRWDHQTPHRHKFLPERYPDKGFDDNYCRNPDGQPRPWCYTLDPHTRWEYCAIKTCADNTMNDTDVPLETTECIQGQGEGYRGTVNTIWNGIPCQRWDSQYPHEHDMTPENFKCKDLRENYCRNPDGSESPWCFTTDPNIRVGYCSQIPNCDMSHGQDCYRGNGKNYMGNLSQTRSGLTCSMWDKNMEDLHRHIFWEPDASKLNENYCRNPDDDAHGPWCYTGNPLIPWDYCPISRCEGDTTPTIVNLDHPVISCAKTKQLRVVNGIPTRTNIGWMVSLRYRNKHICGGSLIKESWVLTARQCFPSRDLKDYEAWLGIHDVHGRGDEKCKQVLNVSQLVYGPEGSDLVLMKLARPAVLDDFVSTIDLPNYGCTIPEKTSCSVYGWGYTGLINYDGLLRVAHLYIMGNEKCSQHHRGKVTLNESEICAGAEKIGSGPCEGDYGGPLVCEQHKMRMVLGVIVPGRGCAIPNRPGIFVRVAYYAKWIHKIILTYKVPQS
Put plainly: Biacore SPR. On the technique in general: SPR reads the build-up and loss of mass on a sensor chip optically.
Experimental: as §1

Test [4] deals with T4, MSP Receptor ECD-His tag (UniProt Q04912 25-957, limits assumed).
T4 construct: extracellular domain; Bought reagent; also called RON; not shown: His tag
Put plainly: Biacore SPR.

Test [5] concerns the target T5, ErbB3 (ErbB3/FC Chimera-His tag) (UniProt P21860 20-643, limits assumed).
T5 construct: extracellular domain
Put plainly: SPR (Biacore); parent antibody.
Experimental: as §1

B1: DVD258 (bispecific antibody, human IgG1, kappa)
heavy: not shown
light: DIVLTQSPDSLAVSLGERVTMNCKSSQSLLNSGMRKSFLAWYQQKPGQSPKLLIYWASTRESGVPDRFTGSGSGTDFTLTISSVQAEDVAVYYCKQSYHLFTFGSGTKLEIKRTVAAPDIQMTQSPSSLSASVGDRVTITCRASQDVSTAVAWYQQKPGKAPKLLIYSASFLYSGVPSRFSGSGSGTDFTLTISSLQPEDFATTYYCQQSYTGTVTFGQGTKVEIKRTVAAPSVFIFPPSDEQLKSGTASVVCLLNNFYPREAKVQWKVDNALQSGNSQESVTEQDSKDSTYSLSSTLTLSKADYEKHKVYACEVTHQGLSSPVTKSFNRGEC
notes: N-terminal VD PlGF, C-terminal VD DLL4; also called VD258H; VD258L
For B1, in test [1], the Kd was below 0.254 nM, the off-rate constant (koff) amounted to 0.00254 s⁻¹ and the on-rate (kon) is above 1e+07 M⁻¹ s⁻¹.

B2: AB015 (antibody, human IgG1, kappa)
heavy: not shown
light: DIQMTQSPSSLSASVGDRVTITCRASQDVSTAVAWYQQKPGKAPKLLIYSASFLYSGVPSRFSGSGSGTDFTLTISSLQPEDFATTYYCQQSYTGTVTFGQGTKVEIKRTVAAPSVFIFPPSDEQLKSGTASVVCLLNNFYPREAKVQWKVDNALQSGNSQESVTEQDSKDSTYSLSSTLTLSKADYEKHKVYACEVTHQGLSSPVTKSFNRGEC
With B2, in test [2], binding was put at a Kd of 0.414 nM, the koff is 0.000166 s⁻¹ and the kon turned out to be 400000 M⁻¹ s⁻¹.

B3: AB047 (antibody, human IgG1, kappa, V domains shown)
VH: QVQLQQSGAELVKPGASVKISCKASGYTFTDYYINWVKLAPGQGLEWIGWIYPGSGNTKYNEKFKGKATLTIDTSSSTAYMQLSSLTSEDTAVYFCVRDSPFFDYWGQGTLLTVSS
VL: DIVLTQSPDSLAVSLGERVTMNCKSSQSLLNSGMRKSFLAWYQQKPGQSPKLLIYWASTRESGVPDRFTGSGSGTDFTLTISSVQAEDVAVYYCKQSYHLFTFGSGTKLEIKR
As to B3, in test [1], the affinity, expressed as Kd, was 0.0284 nM; the koff was 0.000108 s⁻¹; the kon is 3.8e+06 M⁻¹ s⁻¹.

B4: DVD043 (bispecific antibody, human IgG1, kappa)
heavy: not shown
light: DIQMTQSPSSLSASVGDRVTITCSASQDISNYLNWYQQKPGKAPKVLIYFTSSLHSGVPSRFSGSGSGTDFTLTISSLQPEDFATYYCQQYSTVPWTFGQGTKVEIKRTVAAPDIQMTQSPSSLSASVGDRVTITCRASQDVSTAVAWYQQKPGKAPKLLIYSASFLYSGVPSRFSGSGSGTDFTLTISSLQPEDFATTYYCQQSYTGTVTFGQGTKVEIKRTVAAPSVFIFPPSDEQLKSGTASVVCLLNNFYPREAKVQWKVDNALQSGNSQESVTEQDSKDSTYSLSSTLTLSKADYEKHKVYACEVTHQGLSSPVTKSFNRGEC
notes: N-terminal VD VEGF, C-terminal VD DLL4; also called DVD043H; DVD043L
In test [2], B4 yielded a Kd of 2.32 nM, a koff of 0.000217 s⁻¹ and a kon of 93700 M⁻¹ s⁻¹.

B5: DVD033 (bispecific antibody, human IgG1, kappa)
heavy: not shown
light: DVVMTQSPLSLPVTPGEPASISCRSSQSLLHSNGFNYVDWYLQKPGQSPHLLIYFGSYRASGVPDRFSGSGSGTDFTLKISRVEAEDVGVYYCMQALQTPPWTFGQGTKVEIRRTVAAPDIQMTQSPSSVSASVGDRVTITCRASQGISSWLAWYQQKPGKAPNLLIYEASSLQSGVPSRFGGSGSGTDFTLTISSLQPEDFATYYCQQANGFPWTFGQGTKVEIKRTVAAPSVFIFPPSDEQLKSGTASVVCLLNNFYPREAKVQWKVDNALQSGNSQESVTEQDSKDSTYSLSSTLTLSKADYEKHKVYACEVTHQGLSSPVTKSFNRGEC
notes: N-terminal VD RON, C-terminal VD HGF; also called DVD033H; DVD033L
In test [3], B5 registered a Kd of 0.31 nM, a koff of 9.2e-05 s⁻¹ and a kon of 297000 M⁻¹ s⁻¹. In test [4], this molecule returned a Kd of 7.6 nM, a koff of 0.00118 s⁻¹ and a kon of 156000 M⁻¹ s⁻¹.

B6: AB062 (antibody, human IgG1, kappa, V domains shown)
VH: QVQLQQWGAGLLKPSETLSLTCAVYGGSFSGYYWSWIRQPPGKGLEWIGEINHSGSTNYNPSLKSRVTISVETSKNQFSLKLSSVTAADTAVYYCARDKWTWYFDLWGRGTLVTVSS
VL: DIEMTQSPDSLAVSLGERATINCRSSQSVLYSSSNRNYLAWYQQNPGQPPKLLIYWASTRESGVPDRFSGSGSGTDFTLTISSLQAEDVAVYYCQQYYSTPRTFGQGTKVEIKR
notes: also called AB062VH; AB062VL
Regarding B6, in test [5], the Kd was found to be 1.36 nM, the koff is 0.000117 s⁻¹ and the kon is 86600 M⁻¹ s⁻¹.
